This is an account of results in patent publication US20030105000A1 (UNIVERSITY OF VERMONT AND STATE AGRICULTURAL COLLEGE, published 2003).

Positions of bridges follow the written chain, without caps; N, C: chain ends. No end group written: not given here.

For assay [1], the target named is T1, Grb7-SH2 domain-GST (SH2 domain of human Grb7 containing a GST fusion tag) (human, UniProt Q14451 415-532).
T1 construct: domain: SH2 domain; Purified from E. coli; also called Grb7-SH2-GST; not shown: glutathione-S-transferase (GST) fusion tag
Kind of assay: competition ELISA on Grb7-SH2-GST; competitor G7-18 peptide-phage (FIG. 5A). From the text:
(§1) Unbound phage were washed away with Tween-TBS buffer and bound phage were detected with anti-M13-horseradish peroxidase (Amersham-Pharmacia Biotech) and ABTS substrate (Calbiochem). […] Plates were read at OD₄₀₅.
In general terms: An ELISA detects its analyte on a solid surface through an enzyme-linked reagent.

Assay [2] deals with T1, Grb7-SH2 domain-GST (SH2 domain of …). Briefly: assay not described (sentence of Example 3).
Assay [3] has the same target. Briefly: phage ELISA on coated Grb7-SH2 domain-GST, anti-phage-HRP (FIG. 1). From the text:
(§2) The overall methodology of an ELISA is well established. […] Non-specific binding was blocked by casein. Binding of phage was detected using an anti-phage antibody conjugated to horseradish peroxidase.

The target of assay [4] is T2, Grb2-GST (UniProt P62993 1-217).
T2 construct: also called full length Grb2; not shown: glutathione-S-transferase (GST) fusion partner
Kind of assay: phage ELISA on coated protein (FIG. 1).
Source text: as §2

A further assay has as its target T3, GST alone (UniProt P08515 1-218 = GST).
T3 construct: Control protein coated on the ELISA plate; also called fusion protein (GST)
Kind of assay: phage ELISA on coated protein (FIG. 1).
Source text: as §2

For the next assay, the target named is T4, BSA (UniProt P02769 25-607).
T4 construct: also called bovine serum albumin
Kind of assay: phage ELISA on coated protein (FIG. 1).
Source text: as §2

The next assay concerns the target T5, Grb14-SH2-GST (UniProt Q14449 423-540).
T5 construct: domain: SH2 domain; also called SH2 domain of Grb14; not shown: glutathione-S-transferase (GST) fusion partner
T5 sequence (looked up): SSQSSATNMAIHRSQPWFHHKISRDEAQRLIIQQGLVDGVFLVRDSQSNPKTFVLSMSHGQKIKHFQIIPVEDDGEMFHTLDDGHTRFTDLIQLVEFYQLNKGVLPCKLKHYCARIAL
Kind of assay: phage ELISA (FIG. 4).

The target in assay [5] is T2, Grb2-GST. Kind of assay: competition ELISA against Grb2-binding peptide-phage (data not shown).
In assay [6] the target is T1, Grb7-SH2 domain-GST (SH2 domain of …). Briefly: competition ELISA on Grb7-SH2-GST; free peptide 1, 10, 100 uM; competitor G7-18 peptide-phage (FIG. 5A).
Source text: as §1

Assay [7] shares this target. Briefly: phage ELISA (legend of FIG. 1).
Source text: as §2

The target of assay [8] is T2, Grb2-GST. Kind of assay: phage ELISA (FIG. 4).
Assay [9] deals with T1, Grb7-SH2 domain-GST (SH2 domain of …). Briefly: competition ELISA on Grb7-SH2-GST; competitor G7-8NA peptide-phage (FIG. 5B).
Source text: as §1

T1 sequence (Q14451 415-532): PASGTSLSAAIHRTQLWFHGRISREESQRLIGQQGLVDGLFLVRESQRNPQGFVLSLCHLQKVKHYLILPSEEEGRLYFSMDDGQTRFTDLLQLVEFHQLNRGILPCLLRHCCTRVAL
T3 sequence (P08515 whole entry, the tested form may be a part): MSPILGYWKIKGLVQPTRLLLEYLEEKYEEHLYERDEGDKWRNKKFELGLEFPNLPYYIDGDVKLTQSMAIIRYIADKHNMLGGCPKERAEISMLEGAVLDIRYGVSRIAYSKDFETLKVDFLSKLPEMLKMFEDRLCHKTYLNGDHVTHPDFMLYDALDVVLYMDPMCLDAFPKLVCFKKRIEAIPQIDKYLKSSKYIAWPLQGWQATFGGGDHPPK
T2 sequence (P62993 whole entry, the tested form may be a part): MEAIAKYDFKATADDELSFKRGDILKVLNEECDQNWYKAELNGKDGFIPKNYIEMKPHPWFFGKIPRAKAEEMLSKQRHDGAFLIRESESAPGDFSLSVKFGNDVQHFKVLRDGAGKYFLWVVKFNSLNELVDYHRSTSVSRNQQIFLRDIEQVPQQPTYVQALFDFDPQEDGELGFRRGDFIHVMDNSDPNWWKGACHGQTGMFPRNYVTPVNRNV
T4 sequence (P02769 25-607 limits assumed): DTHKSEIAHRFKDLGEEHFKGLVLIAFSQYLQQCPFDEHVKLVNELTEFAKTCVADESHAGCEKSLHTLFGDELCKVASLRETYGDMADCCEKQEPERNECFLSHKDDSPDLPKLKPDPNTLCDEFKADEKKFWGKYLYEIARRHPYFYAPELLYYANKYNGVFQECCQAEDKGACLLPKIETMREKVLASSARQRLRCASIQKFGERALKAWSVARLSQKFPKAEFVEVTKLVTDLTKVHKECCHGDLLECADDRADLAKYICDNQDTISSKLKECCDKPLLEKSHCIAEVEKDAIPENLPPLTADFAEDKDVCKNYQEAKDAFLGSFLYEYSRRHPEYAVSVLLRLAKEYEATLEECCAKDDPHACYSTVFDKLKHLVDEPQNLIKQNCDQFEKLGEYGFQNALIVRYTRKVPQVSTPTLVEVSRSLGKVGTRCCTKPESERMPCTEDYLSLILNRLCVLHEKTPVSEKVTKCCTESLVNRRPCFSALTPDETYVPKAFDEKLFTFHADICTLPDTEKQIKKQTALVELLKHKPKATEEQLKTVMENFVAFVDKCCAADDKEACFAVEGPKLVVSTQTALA

B1: G7-18NATE free synthetic peptide (peptide)
peptide: WFEGYDNTFPC
modifications: non-phosphorylated; thioether bond between the ends of the peptide (N-terminal cysteine replaced by another functional group)
notes: Lacks the 4-residue arms on both sides; cyclised by a thioether; also called G7BP-5NATE; G7-18NATE (thioether)
Take B1: the binding result in assay [1] is given as “binds”.

B2: G7BP-1NA (peptide)
peptide: CKYLYYDNDYLC
modifications: disulfide 1-12 (inferred)
Turning to B2, the binding result in assay [2] was “binds”.

B3: G7BP-4 peptide-phage clone (peptide, not shown: large carriers)
peptide: GVSNCVFWGYANDWLCSDYS
modifications: disulfide 5-16; also: displayed on phage gene III protein
notes: Tested as a phage clone displaying the peptide on the gene III protein; also called G7-8 peptide-phage
Turning to B3, the binding result in assay [3] is “binds”; with Grb2-GST [4] it was “no binding”; with GST alone, “no binding”; in the assay with BSA, “no binding”; with Grb14-SH2-GST it was “no binding”.

B4: G7BP-3 peptide-phage clone (peptide, not shown: large carriers)
peptide: NVSECIYIHYDNWSLCGVEV
modifications: disulfide 5-16; also: displayed on phage gene III protein
notes: Tested as a phage clone displaying the peptide on the gene III protein
For B4, the binding result is on record as “binds” in [3]; “no binding” in the assay with Grb2-GST [4]; “no binding” with GST alone; “no binding” in the assay with BSA; “no binding” with Grb14-SH2-GST.

B5: G7BP-7NA (peptide)
peptide: CGYIGYDNIFEC
modifications: disulfide 1-12 (inferred)
For B5, the binding result in [2] is given as “binds”.

B6: G7-8 free synthetic peptide (peptide)
peptide: GVSNCVFWGYANDWLCSDYS
modifications: disulfide 5-16 (inferred)
notes: Free synthetic peptide, not on phage; also called G7BP-4
With B6, the figures for the binding result (with Grb2-GST [5]; in [6]) were “no binding” and “binds”, respectively.

B7: G7BP-2 peptide-phage clone (peptide, not shown: large carriers)
peptide: KLFWCTYEDYANEWPCPGYS
modifications: disulfide 5-16; also: displayed on phage gene III protein
notes: as for B4
Turning to B7, the binding result in assay [7] is on record as “binds”; in the assay with GST alone it was “no binding”; with BSA it was “no binding”; with Grb2-GST [8] it was “no binding”; with Grb14-SH2-GST, “no binding”.

B8: G7BP-5NA (peptide)
peptide: CWFEGYDNTFPC
notes: also called G7-18NA
With B8, in assay [2], the binding result is on record as “binds”.

B9: G7BP-7 peptide-phage clone (peptide, not shown: large carriers)
peptide: RTSPCGYIGYDNIFECTYLG
modifications: disulfide 5-16; also: displayed on phage gene III protein
notes: as for B4
As to B9, the binding result in assay [3] is “binds”; in the assay with Grb2-GST [4], “no binding”; with GST alone it was “no binding”; in the assay with BSA it was “no binding”; with Grb14-SH2-GST it was “no binding”.

B10: G7BP-6 peptide-phage clone (peptide, not shown: large carriers)
peptide: FCAVCNEELYENCGGCSVGK
modifications: disulfide 5-16; cysteine pairing not given here; also: displayed on phage gene III protein
notes: as for B4
B10: the binding result was “binds” in [3]; “no binding” with Grb2-GST [4]; “no binding” in the assay with GST alone; “no binding” with BSA; “no binding” in the assay with Grb14-SH2-GST.

B11: G7BP-6NA (peptide)
peptide: CNEELYENCGGC
modifications: disulfide (positions not given here); not fully specified
Consider B11, for which the binding result in assay [2] is reported as “binds”.

B12: G7BP-3NA (peptide)
peptide: CIYIHYDNWSLC
modifications: disulfide 1-12 (inferred)
B12: the binding result in assay [2] is on record as “binds”.

B13: G7BP-5 peptide-phage clone (peptide, not shown: large carriers)
peptide: RSTLCWFEGYDNTFPCKYFR
modifications: disulfide 5-16; also: displayed on phage gene III protein
notes: Tested as a phage clone; also called G7-18 peptide-phage
Consider B13, for which the binding result in [3] was “binds”; with Grb2-GST [4], “no binding”; with GST alone, “no binding”; in the assay with BSA, “no binding”; in the assay with Grb14-SH2-GST, “no binding”.

B14: G7-8NATE free synthetic peptide (peptide)
peptide: VFWGYANDWLC
modifications: non-phosphorylated; thioether bond between the ends of the peptide (N-terminal cysteine replaced by another functional group)
notes: Lacks the arms; also called G7BP-4NATE
Turning to B14, the binding result in assay [9] is recorded as “binds”.

B15: G7-18 free synthetic peptide (peptide)
peptide: RSTLCWFEGYDNTFPCKYFR
modifications: disulfide 5-16 (inferred)
notes: Free synthetic peptide, not on phage; also called G7BP-5; G7-18 (disulfide)
In the case of B15, the binding result with Grb2-GST [5] is listed as “no binding”; in assay [6], “binds”.
